Reference: patent US20230220021A1, “CYCLIC PEPTIDE INHIBITORS OF PSD-95 AND USES THEREOF” (University of Copenhagen, priority 2020, published 2023)
Where a SMILES comes first, the peptide text is derived from it. [ ]: non-standard residue; d: D form.

These molecules were tested against T1, PSD-95-PDZ2 (Homo sapiens, UniProt P78352) (assay: Fluorescence polarization (FP) competition assay against cyclic nNOS TAMRA probe). Conditions: FP competition.
T1 construct: 7xHis (N); made in house; host or cells: Escherichia coli B21 pLys (for the mutants, 'as previously described')
Type: binding

T1 sequence (P78352 160-246 limits assumed): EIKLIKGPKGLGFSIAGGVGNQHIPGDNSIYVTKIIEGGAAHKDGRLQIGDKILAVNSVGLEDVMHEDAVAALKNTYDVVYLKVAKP

| Molecule | effect on interaction with PSD-95-PDZ2 (in words) |
| --- | --- |
| Cyclo-(THLEATFTGDGTPKTIRVTQpG(Qα)) (cyclo(THLEATFTGDGTPKTIRVTQ[dP]GQ); SMILES CC[C@H](C)[C@@H]1NC(=O)[C@H]([C@@H](C)O)NC(=O)[C@H](CCCCN)NC(=O)[C@@H]2CCCN2C(=O)[C@H]([C@@H](C)O)NC(=O)CNC(=O)[C@H](CC(=O)O)NC(=O)CNC(=O)[C@H]([C@@H](C)O)NC(=O)[C@H](Cc2ccccc2)NC(=O)[C@H]([C@@H](C)O)NC(=O)[C@H](C)NC(=O)[C@H](CCC(=O)O)NC(=O)[C@H](CC(C)C)NC(=O)[C@H](Cc2c[nH]cn2)NC(=O)[C@H]([C@@H](C)O)NC(=O)[C@H](CCC(N)=O)NC(=O)CNC(=O)[C@H]2CCCN2C(=O)[C@H](CCC(N)=O)NC(=O)[C@H]([C@@H](C)O)NC(=O)[C@H](C(C)C)NC(=O)[C@H](CCCNC(=N)N)NC1=O) [SEQ ID NO: 59] | abolishes binding |
| Cyclo-(THLEAlloTTFTGDGTPKTIRVTQpG(Qα)) (THLEXTFTGDGTPKTIRVTQPGQ; cyclic; allo-threonine at 109; D-proline; cyclized peptide; (5)..(5) X is AlloT; (21)..(21) is D-AA) [SEQ ID NO: 80] | abolish the interaction |
| Cyclo-(THLETT ? -Me-FTGDGTPKTIRVTQpG(Qα)) (THLETTXTGDGTPKTIRVTQPGQ; cyclic; N-methyl F111; D-proline; cyclized peptide; (7)..(7) X is N-Me-F; (21)..(21) is D-AA) [SEQ ID NO: 90] | abolished the interaction |

Same assay, conditions: FP competition, cyclic nNOS TAMRA probe; mean of triplicates; N.B. = not binding; read-out: Ki

| Molecule | Ki [µM] |
| --- | --- |
| CC[C@H](C)[C@@H]1NC(=O)[C@H]([C@@H](C)O)NC(=O)[C@H](CCCCN)NC(=O)[C@@H]2CCCN2C(=O)[C@H]([C@@H](C)O)NC(=O)CNC(=O)[C@H](CC(=O)O)NC(=O)CNC(=O)[C@H]([C@@H](C)O)NC(=O)[C@H](Cc2ccccc2)NC(=O)[C@H]([C@@H](C)O)NC(=O)[C@H]([C@@H](C)O)NC(=O)[C@H](CCC(=O)O)NC(=O)[C@H](CC(C)C)NC(=O)[C@H](Cc2c[nH]cn2)NC(=O)[C@H]([C@@H](C)O)NC(=O)[C@H](CCC(N)=O)NC(=O)CNC(=O)[C@H]2CCCN2C(=O)[C@@H](CCC(N)=O)NC(=O)[C@H]([C@@H](C)O)NC(=O)[C@H](C(C)C)NC(=O)[C@H](CCCNC(=N)N)NC1=O [compound 129] | 11.1 |
| CC[C@H](C)[C@@H]1NC(=O)[C@H]([C@@H](C)O)NC(=O)[C@H](CCCCN)NC(=O)[C@@H]2CCCN2C(=O)[C@H](CC(=O)O)NC(=O)CNC(=O)[C@H](CC(=O)O)NC(=O)CNC(=O)[C@H](Cc2c[nH]c3ccccc23)NC(=O)[C@H](Cc2ccccc2)NC(=O)[C@H]([C@@H](C)O)NC(=O)[C@H]([C@@H](C)O)NC(=O)[C@H](CCC(=O)O)NC(=O)[C@H](CC(C)C)NC(=O)[C@H](Cc2c[nH]cn2)NC(=O)[C@H]([C@@H](C)O)NC(=O)[C@H](CCC(N)=O)NC(=O)CNC(=O)[C@H]2CCCN2C(=O)[C@H](CCC(N)=O)NC(=O)[C@H]([C@@H](C)O)NC(=O)[C@H](C(C)C)NC(=O)[C@H](CCCNC(=N)N)NC1=O [compound 130] (cyclo(THLETTFWGDGDPKTIRVTQ[dP]GQ)) | 0.65 |
| CC[C@H](C)[C@@H]1NC(=O)[C@H]([C@@H](C)O)NC(=O)[C@H](CCCCN)NC(=O)[C@@H]2CCCN2C(=O)[C@H]([C@@H](C)O)NC(=O)[C@@H]2CCCN2C(=O)[C@H](CC(=O)O)NC(=O)CNC(=O)[C@H](Cc2c[nH]c3ccccc23)NC(=O)[C@H](Cc2ccccc2)NC(=O)[C@H]([C@@H](C)O)NC(=O)[C@H]([C@@H](C)O)NC(=O)[C@H](CCC(=O)O)NC(=O)[C@H](CC(C)C)NC(=O)[C@H](Cc2c[nH]cn2)NC(=O)[C@H]([C@@H](C)O)NC(=O)[C@H](CCC(N)=O)NC(=O)CNC(=O)[C@H]2CCCN2C(=O)[C@H](CCC(N)=O)NC(=O)[C@H]([C@@H](C)O)NC(=O)[C@H](C(C)C)NC(=O)[C@H](CCCNC(=N)N)NC1=O [compound 131] (cyclo(THLETTFWGDPTPKTIRVTQ[dP]GQ)) | 0.95 |
| CC[C@H](C)[C@@H]1NC(=O)[C@H]([C@@H](C)O)NC(=O)[C@H](CCCCN)NC(=O)[C@@H]2CCCN2C(=O)[C@H](CCC(=O)O)NC(=O)[C@H](C)NC(=O)[C@H](CC(=O)O)NC(=O)CNC(=O)[C@H](Cc2c[nH]c3ccccc23)NC(=O)[C@H](Cc2ccccc2)NC(=O)[C@H]([C@@H](C)O)NC(=O)[C@H]([C@@H](C)O)NC(=O)[C@H](CCC(=O)O)NC(=O)[C@H](CC(C)C)NC(=O)[C@H](Cc2c[nH]cn2)NC(=O)[C@H]([C@@H](C)O)NC(=O)[C@H](CCC(N)=O)NC(=O)CNC(=O)[C@H]2CCCN2C(=O)[C@H](CCC(N)=O)NC(=O)[C@H]([C@@H](C)O)NC(=O)[C@H](C(C)C)NC(=O)[C@H](CCCNC(=N)N)NC1=O [compound 134] (cyclo(THLETTFWGDAEPKTIRVTQ[dP]GQ)) | 0.26 |
| CC[C@H](C)[C@@H]1NC(=O)[C@H]([C@@H](C)O)NC(=O)[C@H](CCCCN)NC(=O)[C@@H]2CCCN2C(=O)[C@H](CCC(=O)O)NC(=O)CNC(=O)[C@@H](CC(=O)O)NC(=O)CNC(=O)[C@H](Cc2c[nH]c3ccccc23)NC(=O)[C@H](Cc2ccccc2)NC(=O)[C@H]([C@@H](C)O)NC(=O)[C@H]([C@@H](C)O)NC(=O)[C@H](CCC(=O)O)NC(=O)[C@H](CC(C)C)NC(=O)[C@H](Cc2c[nH]cn2)NC(=O)[C@H]([C@@H](C)O)NC(=O)[C@H](CCC(N)=O)NC(=O)CNC(=O)[C@H]2CCCN2C(=O)[C@H](CCC(N)=O)NC(=O)[C@H]([C@@H](C)O)NC(=O)[C@H](C(C)C)NC(=O)[C@H](CCCNC(=N)N)NC1=O [compound 135] (cyclo(THLETTFWG[dD]GEPKTIRVTQ[dP]GQ)) | 0.19 |

Same assay, conditions: FP competition, relative to unsubstituted cyclic peptide

| Molecule | fold lowered (decreased) binding affinity of the cyclic peptide [fold] |
| --- | --- |
| Cyclo-(THLESTFTGDGTPKTIRVTQpG(Qα)) (cyclo(THLESTFTGDGTPKTIRVTQ[dP]GQ); SMILES CC[C@H](C)[C@@H]1NC(=O)[C@H]([C@@H](C)O)NC(=O)[C@H](CCCCN)NC(=O)[C@@H]2CCCN2C(=O)[C@H]([C@@H](C)O)NC(=O)CNC(=O)[C@H](CC(=O)O)NC(=O)CNC(=O)[C@H]([C@@H](C)O)NC(=O)[C@H](Cc2ccccc2)NC(=O)[C@H]([C@@H](C)O)NC(=O)[C@H](CO)NC(=O)[C@H](CCC(=O)O)NC(=O)[C@H](CC(C)C)NC(=O)[C@H](Cc2c[nH]cn2)NC(=O)[C@H]([C@@H](C)O)NC(=O)[C@H](CCC(N)=O)NC(=O)CNC(=O)[C@H]2CCCN2C(=O)[C@H](CCC(N)=O)NC(=O)[C@H]([C@@H](C)O)NC(=O)[C@H](C(C)C)NC(=O)[C@H](CCCNC(=N)N)NC1=O) [SEQ ID NO: 52] | 7 |
| Cyclo-(THLETTFTGDGTPKSIRVTQpG(Qα)) (cyclo(THLETTFTGDGTPKSIRVTQ[dP]GQ); SMILES CC[C@H](C)[C@@H]1NC(=O)[C@H](CO)NC(=O)[C@H](CCCCN)NC(=O)[C@@H]2CCCN2C(=O)[C@H]([C@@H](C)O)NC(=O)CNC(=O)[C@H](CC(=O)O)NC(=O)CNC(=O)[C@H]([C@@H](C)O)NC(=O)[C@H](Cc2ccccc2)NC(=O)[C@H]([C@@H](C)O)NC(=O)[C@H]([C@@H](C)O)NC(=O)[C@H](CCC(=O)O)NC(=O)[C@H](CC(C)C)NC(=O)[C@H](Cc2c[nH]cn2)NC(=O)[C@H]([C@@H](C)O)NC(=O)[C@H](CCC(N)=O)NC(=O)CNC(=O)[C@H]2CCCN2C(=O)[C@H](CCC(N)=O)NC(=O)[C@H]([C@@H](C)O)NC(=O)[C@H](C(C)C)NC(=O)[C@H](CCCNC(=N)N)NC1=O) [SEQ ID NO: 50] | 25 |
